For data set [1], the system named is Acetyl-Prolyl-Arginyl-Asparaginyl-Lysyl-aminoacetamide coumarin (Ac-PRNK-ACC).
The test system of data set [2] is Ac-PANK-ACC. Kind of data set: single substrate kinetics, fluorogenic ACC release, Skin (β-I) Tryptase.
Data set [3] deals with Ac-PRNR-ACC. The description is as above.
The test system of data set [4] is Acetyl-Prolyl-Arginyl-Asparaginyl-Lysyl-aminoacetamide coumarin (Ac-PRNK-ACC). The description is as above.
Data set [5] deals with Ac-PRTK-ACC. The data set is described as above.
Data set [6] deals with Ac-PANK-ACC.
The subject of data set [7] is Ac-PRNR-ACC.
In data set [8] the test system is Ac-PRTK-ACC.
Data set [9] concerns Ac-PANK-ACC. Kind of data set: single substrate kinetics, fluorogenic ACC release, Lung (β-II) Tryptase.
In data set [10] the test system is Ac-PRNR-ACC. Described as above.
Data set [11] relates to Acetyl-Prolyl-Arginyl-Asparaginyl-Lysyl-aminoacetamide coumarin (Ac-PRNK-ACC). Described as above.
For data set [12], the system named is Ac-PRTK-ACC. Described as above.

Chain of recombinant human βI-tryptase (chain, as listed by the source): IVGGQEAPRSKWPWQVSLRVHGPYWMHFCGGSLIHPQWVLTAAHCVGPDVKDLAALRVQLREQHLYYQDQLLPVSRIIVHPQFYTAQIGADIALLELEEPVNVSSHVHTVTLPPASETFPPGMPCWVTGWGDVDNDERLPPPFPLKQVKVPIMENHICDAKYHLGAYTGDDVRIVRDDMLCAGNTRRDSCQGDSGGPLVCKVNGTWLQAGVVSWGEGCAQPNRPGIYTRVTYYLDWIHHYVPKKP

In the case of “Human alpha-thrombin (Haematologic Technologies, Inc.)”, the “cleavage of the fluorogenic substrate (fluorescence, excitation 355 nm, emission 460 nm)” value in data set [1] is “Ac-PRNK-ACC (SEQ. ID. NO: 12) is a specific substrate for tryptase in relation to other blood borne serine proteases”.

By Km is commonly meant the concentration of substrate that gives half-maximal velocity. By kcat is commonly meant the maximal rate divided by the concentration of active sites. recombinant human βI-tryptase: the Km in the data set on Ac-PANK-ACC [2] was found to be 133 µM; in the data set with Ac-PRNR-ACC [3], 18.6 µM; in data set [4] it was 14.5 µM; in the data set on Ac-PRTK-ACC [5], 23.4 µM. Also, the kcat in the data set with Ac-PANK-ACC [6] came out at 19.1 s⁻¹; in the data set on Ac-PRNR-ACC [7] it was 20.9 s⁻¹; in [1] it was 17.8 s⁻¹; in the data set on Ac-PRTK-ACC [8], 18.3 s⁻¹. The kcat/km (s^-1M^-1) in the data set with Ac-PANK-ACC [6] worked out at 140000 s^-1M^-1; in the data set on Ac-PRNR-ACC [7], 1.12e+06 s^-1M^-1; in [1], 1.23e+06 s^-1M^-1; in the data set on Ac-PRTK-ACC [8] it was 780000 s^-1M^-1. Moreover, the “cleavage of the fluorogenic substrate (fluorescence, excitation 355 nm, emission 460 nm)” value in [1] was “Ac-PRNK-ACC (SEQ. ID. NO: 12) is a specific substrate for tryptase in relation to other blood borne serine proteases”. Besides, the “preference over Ac-PRTK-ACC (kcat/Km)” value in data set [1] is reported as “A minimal preference, approximately 2-fold, for P2-asparagine over P2-threonine was seen for both enzymes”.

Take recombinant human βII-tryptase: the Km in the data set on Ac-PANK-ACC [9] is 110 µM; in the data set on Ac-PRNR-ACC [10], 16.5 µM; in data set [11], 8.9 µM; in the data set on Ac-PRTK-ACC [12], 14.7 µM. Also, the kcat was determined as 20.3 s⁻¹ in the data set on Ac-PANK-ACC [6], 21.8 s⁻¹ in the data set on Ac-PRNR-ACC [7], 16.8 s⁻¹ in data set [1] and 18.7 s⁻¹ with Ac-PRTK-ACC [8]. Further, the kcat/km (s^-1M^-1) in the data set on Ac-PANK-ACC [6] is 180000 s^-1M^-1; with Ac-PRNR-ACC [7] it was 1.31e+06 s^-1M^-1; in [1], 1.89e+06 s^-1M^-1; in the data set on Ac-PRTK-ACC [8] it was 1.27e+06 s^-1M^-1. In the data set on Ac-PRNR-ACC [7], the “activity relative to Ac-PRNK-ACC (kcat/Km)” value is “about 70-90% of the activity of Ac-PRNK-ACC”. The “preference over Ac-PANK-ACC (kcat/Km)” value in data set [1] is recorded as “an approximately 10-fold preference for Ac-PRNK-ACC (SEQ. ID. NO: 12) over Ac-PANK-ACC”. Also, the “preference over Ac-PRTK-ACC (kcat/Km)” value in [1] is “A minimal preference, approximately 2-fold, for P2-asparagine over P2-threonine was seen for both enzymes”.

The values above are taken from US20020197661.
